From PMC8413462

Molecular target: T1, Snu13 (Saccharomyces cerevisiae) (UniProt P39990)
T1 sequence: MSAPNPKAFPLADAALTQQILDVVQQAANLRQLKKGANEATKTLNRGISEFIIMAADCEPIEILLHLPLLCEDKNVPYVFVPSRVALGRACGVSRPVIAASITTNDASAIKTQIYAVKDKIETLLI
Assay: EMSA
Conditions: EMSA: annealed in 10 mM Tris-HCl, 100 mM NaCl, 1 mM EDTA, pH 7.5; 4 C, 10% native PAGE; 10 pmol Cy5-RNA (~2 uM) or 0.5 nmol unlabeled RNA. RNP: 20 mM Na …

snR41-kl1 was tested, and the Kd was > 10 µM.
